{
  "source": "patent US20190270786A1",
  "about": "(PROTAGONIST THERAPEUTICS, published 2019)",
  "binders": {"B1": {"name": "Peptide 10 (peptide)", "peptide": "Ac-FNMQCLRRMSEAGVDPNLNQEQRWAKIKSIMDDC-NH2", "modifications": "disulfide 5-34", "SMILES": "CC[C@H](C)[C@@H]1NC(=O)[C@H](CCCCN)NC(=O)[C@H](C)NC(=O)[C@H](Cc2c[nH]c3ccccc23)NC(=O)[C@H](CCCNC(=N)N)NC(=O)[C@H](CCC(N)=O)NC(=O)[C@H](CCC(=O)O)NC(=O)[C@H](CCC(N)=O)NC(=O)[C@H](CC(N)=O)NC(=O)[C@H](CC(C)C)NC(=O)[C@H](CC(N)=O)NC(=O)[C@@H]2CCCN2C(=O)[C@H](CC(=O)O)NC(=O)[C@H](C(C)C)NC(=O)CNC(=O)[C@H](C)NC(=O)[C@H](CCC(=O)O)NC(=O)[C@H](CO)NC(=O)[C@H](CCSC)NC(=O)[C@H](CCCNC(=N)N)NC(=O)[C@H](CCCNC(=N)N)NC(=O)[C@H](CC(C)C)NC(=O)[C@@H](NC(=O)[C@H](CCC(N)=O)NC(=O)[C@H](CCSC)NC(=O)[C@H](CC(N)=O)NC(=O)[C@H](Cc2ccccc2)NC(C)=O)CSSC[C@@H](C(N)=O)NC(=O)[C@H](CC(=O)O)NC(=O)[C@H](CC(=O)O)NC(=O)[C@H](CCSC)NC(=O)[C@H]([C@@H](C)CC)NC(=O)[C@H](CO)NC(=O)[C@H](CCCCN)NC1=O", "notes": "Synthetic peptide"}, "B2": {"name": "Peptide 13 (peptide)", "peptide": "Ac-FNMQCLRRMAEAGVDPNLNQEQRWAKIKSIMDDC-NH2", "modifications": "disulfide 5-34", "SMILES": "CC[C@H](C)[C@@H]1NC(=O)[C@H](CCCCN)NC(=O)[C@H](C)NC(=O)[C@H](Cc2c[nH]c3ccccc23)NC(=O)[C@H](CCCNC(=N)N)NC(=O)[C@H](CCC(N)=O)NC(=O)[C@H](CCC(=O)O)NC(=O)[C@H](CCC(N)=O)NC(=O)[C@H](CC(N)=O)NC(=O)[C@H](CC(C)C)NC(=O)[C@H](CC(N)=O)NC(=O)[C@@H]2CCCN2C(=O)[C@H](CC(=O)O)NC(=O)[C@H](C(C)C)NC(=O)CNC(=O)[C@H](C)NC(=O)[C@H](CCC(=O)O)NC(=O)[C@H](C)NC(=O)[C@H](CCSC)NC(=O)[C@H](CCCNC(=N)N)NC(=O)[C@H](CCCNC(=N)N)NC(=O)[C@H](CC(C)C)NC(=O)[C@@H](NC(=O)[C@H](CCC(N)=O)NC(=O)[C@H](CCSC)NC(=O)[C@H](CC(N)=O)NC(=O)[C@H](Cc2ccccc2)NC(C)=O)CSSC[C@@H](C(N)=O)NC(=O)[C@H](CC(=O)O)NC(=O)[C@H](CC(=O)O)NC(=O)[C@H](CCSC)NC(=O)[C@H]([C@@H](C)CC)NC(=O)[C@H](CO)NC(=O)[C@H](CCCCN)NC1=O", "notes": "Synthetic peptide"}, "B3": {"name": "Ustekinumab (antibody, V domains shown)", "VH": "EVQLVQSGAEVKKPGESLKISCKGSGYSFTTYWLGWVRQMPGKGLDWIGIMSPVDSDIRYSPSFQGQVTMSVDKSITTAYLQWNSLKASDTAMYYCARRRPGQGYFDFWGQGTLVTVSS", "VL": "DIQMTQSPSSLSASVGDRVTITCRASQGISSWLAWYQQKPEKAPKSLIYAASSLQSGVPSRFSGSGSGTDFTLTISSLQPEDFATYYCQQYNIYPYTFGQGTKLEIK"}},
  "key": {"[1]": {"molecular_target": "T1, human IL-23 (human, UniProt Q9NPF7 20-189; P29460 23-328)", "T1 construct": "also called interleukin-23", "T1 sequence (looked up) 1": "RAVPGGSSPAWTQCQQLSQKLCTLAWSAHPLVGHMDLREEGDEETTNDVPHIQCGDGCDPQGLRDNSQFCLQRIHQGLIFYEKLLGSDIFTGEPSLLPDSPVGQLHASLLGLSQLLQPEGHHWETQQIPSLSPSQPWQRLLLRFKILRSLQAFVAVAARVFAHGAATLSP", "T1 sequence (looked up) 2": "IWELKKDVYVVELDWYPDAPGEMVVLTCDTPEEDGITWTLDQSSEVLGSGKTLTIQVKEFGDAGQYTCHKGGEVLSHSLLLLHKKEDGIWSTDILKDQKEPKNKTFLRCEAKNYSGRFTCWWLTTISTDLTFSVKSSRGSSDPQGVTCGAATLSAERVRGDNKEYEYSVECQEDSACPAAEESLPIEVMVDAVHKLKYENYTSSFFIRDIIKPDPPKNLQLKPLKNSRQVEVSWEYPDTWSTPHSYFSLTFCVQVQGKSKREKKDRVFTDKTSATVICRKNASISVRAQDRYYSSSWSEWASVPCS", "assay": "Human IL23/IL23R huFc competition ELISA", "method": "(§1) Immulon® 4HBX plate was coated with 200 ng/well of IL23R_huFC and incubated overnight at 4° C. The wells were washed three times with PBST, blocked with PBS containing 5% PhosphoBLOCKER (Cell Biolabs #AKR-103) for 1 hour at room temperature, and washed again three times with PBST. […] The wells were again washed four times with PBST. The secondary antibodies, HRP conjugated donkey anti-goat IgG (Jackson ImmunoResearch Laboratories #705-035-147) diluted 1:5000 in PBS, was then added and incubated for 30 minutes at room temperature. The plate was finally washed as above. Signals were visualized with TMB One Component HRP Membrane Substrate, quenched with 2 M sulfuric acid and read spectrophotometrically at 450 nm."}, "[2]": {"molecular_target": "T2, mouse IL-23 (mouse, UniProt Q9EQ14 22-196; P43432 23-335)", "T2 sequence (looked up) 1": "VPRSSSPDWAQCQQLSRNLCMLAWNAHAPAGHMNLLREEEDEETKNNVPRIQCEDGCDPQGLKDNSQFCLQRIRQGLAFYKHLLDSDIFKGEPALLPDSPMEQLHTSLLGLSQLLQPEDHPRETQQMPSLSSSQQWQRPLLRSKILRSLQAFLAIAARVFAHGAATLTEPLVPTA", "T2 sequence (looked up) 2": "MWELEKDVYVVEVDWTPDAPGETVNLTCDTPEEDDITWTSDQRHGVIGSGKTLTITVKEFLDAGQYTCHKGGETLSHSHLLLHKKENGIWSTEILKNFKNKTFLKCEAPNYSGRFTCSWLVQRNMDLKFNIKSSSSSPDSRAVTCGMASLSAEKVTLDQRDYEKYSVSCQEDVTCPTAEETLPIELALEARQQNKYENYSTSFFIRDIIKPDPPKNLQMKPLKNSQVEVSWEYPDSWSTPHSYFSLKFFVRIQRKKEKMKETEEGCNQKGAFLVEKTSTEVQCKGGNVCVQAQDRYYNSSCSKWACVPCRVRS", "assay": "Mouse IL23/IL23R huFc competition ELISA"}, "[3]": {"molecular_target": "T3, human IL-12 (human, UniProt P29459 23-219; P29460 23-328)", "T3 sequence (looked up) 1": "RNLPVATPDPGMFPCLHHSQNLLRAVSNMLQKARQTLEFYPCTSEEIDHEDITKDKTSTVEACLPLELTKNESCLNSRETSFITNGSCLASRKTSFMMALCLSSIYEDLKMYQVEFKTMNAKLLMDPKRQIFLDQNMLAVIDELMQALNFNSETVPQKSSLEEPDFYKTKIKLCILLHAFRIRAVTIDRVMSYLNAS", "T3 sequence (looked up) 2": "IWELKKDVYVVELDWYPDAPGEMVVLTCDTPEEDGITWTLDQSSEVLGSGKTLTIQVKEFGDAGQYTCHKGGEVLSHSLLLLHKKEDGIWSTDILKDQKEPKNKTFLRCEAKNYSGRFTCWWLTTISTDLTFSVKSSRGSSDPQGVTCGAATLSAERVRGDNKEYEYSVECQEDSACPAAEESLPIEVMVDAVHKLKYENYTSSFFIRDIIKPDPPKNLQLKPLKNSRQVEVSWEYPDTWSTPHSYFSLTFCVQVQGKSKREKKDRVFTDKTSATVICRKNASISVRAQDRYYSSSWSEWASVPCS", "assay": "Human IL12/IL12Rβ1 huFc competition ELISA (IL-12Rβ1_huFC coated, IL-12 at its EC50)", "method": "(§2) Human IL-12Rβ1 ELISA assays were performed as follows: an assay plate was coated with 100 ng/well of human IL-12Rβ1_huFC and incubated overnight at 4° C. The wells were washed, blocked, and washed again. […] Signals were visualized with TMB One Component HRP Membrane Substrate and quenched with 2 M sulfuric acid."}, "[4]": {"molecular_target": "T1, human IL-23", "assay": "cell-based or functional assay"}, "[5]": {"molecular_target": "T1, human IL-23", "assay": "Human IL23/IL12Rβ1 huFc competition ELISA (IL-12Rβ1_huFC coated, IL-23 at its EC50)", "method": "as §2"}, "[6]": {"molecular_target": "T1, human IL-23", "assay": "IL23-IL23R competitive binding ELISA (IL23R_huFC coated, 0.9 nM IL-23, peptide titrated); bin by the legend in paragraph 291", "method": "as §1"}},
  "note": "Bridge positions count the residues as written; N and C are the ends.",
  "data": [
    {"binder": "B1", "values": [
      {"measurement": "IC50", "setting": "[1]", "value": 3.3, "unit": "µM"},
      {"measurement": "IC50", "setting": "[2]", "value": 3.6, "unit": "µM"},
      {"measurement": "IC50", "setting": "[3]", "value": "> 100", "unit": "µM"},
      {"measurement": "Mouse splenocyte assay: IC50 of IL-23-dependent IL-17A release", "setting": "[4]", "value": 1.6, "unit": "µM"},
      {"measurement": "IC50", "setting": "[5]", "value": "> 100", "unit": "µM"}
    ]},
    {"binder": "B2", "values": [
      {"measurement": "IC50", "setting": "[6]", "value": "≤ 1", "unit": "µM"}
    ]},
    {"binder": "B3", "values": [
      {"measurement": "IC50", "setting": "[5]", "value": 0.14, "unit": "µg/mL"}
    ]}
  ]
}
